Assay: yeast display, Sf9 membrane polyspecificity reagent, FACS + sequencing; frameworks hold sequencing errors
Outline: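 Nanobodies from a synthetic yeast display library (Saccharomyces cerevisiae BJ5465), induced 36–48 hours with galactose, were stained 1 hour at 4 °C with 10% biotinylated, detergent-solubilized Sf9 membrane reagent, enriched on streptavidin microbeads, then FACS-sorted. Anti-HA (expression) and streptavidin (reagent binding) fluorescence set low and high (top ~1%) gates. Polyreactivity labels come from the gate of origin. Genes were colony-PCR amplified, MiSeq 2 × 250 sequenced and filtered by CDR length.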

Sequence | polyreactivity (PSR sort gate)
QVQLVESGGGLVQAGGSLRLSCAASGRTFYSNAMGWYRQAPGKERELVATISSGGSTNYADSVKGRFTISRDNAKNTVYLQMNSLKPEDTAVYYCATRPDRINDYWGQGTQVTVSS | low polyreactivity
QVQLVESGGGLVQAGGSLRLSCAASGRTFYSNVMGWYRQAPGKERELVAAISSSTYYADSVKGRFTISRDNANNTVYLQMNSLKPEDTAVYYCAAYSRYYPYYRYGYLGQGTQVTVSS | high polyreactivity
QVQLVESGGGLVQAGGSLRLSCAASGRTFYSYAIGWYREAPGKERELVASISSGGGTNYADSVKGRFTISRDNAKNTVYLQMNSLKPDDTAVYYCAAKYWIFYPYDYWGQGTQVTVSS | low polyreactivity
QVQLVESGGGLVQAGGSLRLSCAASGRTFYSYAMGWSRQAPGKERELVAAISRAGGTYYADSVKGRFTLSRDNAKNTVYLQMNSLKPEDTAVYYCAARQAVYGLRSDFYYWGQGTQVTVSS | high polyreactivity
QVQLVESGGGLVQAGGSLRLSCAASGRTFYSYAMGWYRKAPGKERELVAAISASGGRTYYADSVKGRFTISRDNAKNTVYLQMNSLKPEDTAVYYCAAYPWYRMWGQGTQVTVSS | high polyreactivity
QVQLVESGGGLVQAGGSLRLSCAASGRTFYSYAMGWYRQAPGKERELVAAISFRDGRTYYADSVKGRFTISRDNAKNTVYLQMNSLKPEDTAVYYCAAQLSHYYSLYYYWGQGTQVTVSS | high polyreactivity
QVQLVESGGGLVQAGGSLRLSCAASGRTFYSYAMGWYRQAPGKERELVAAISRSGNTYYADSVKGRFTISRDNAKNTVYLQMNSLKPEDTAVYYCAAYYWWGYPENDYWGQGTQVTVSS | high polyreactivity
QVQLVESGGGLVQAGGSLRLSCAASGRTFYSYVMGWSRQAPGKERELVAAISQSGGNTYYADSVKGRFTISRDNAKNTVYLQMNSLKPEDTAVYYCAAGGVLTSWFGQEYEYYYWGQGTQVTVSS | high polyreactivity
QVQLVESGGGLVQAGGSLRLSCAASGRTFYTNAMGCYRQAPGKERELVARIRRGGTTNYADSVKGRFTISRDNAKNTVYLQMNSLKPEDTAVYYCSYSYGYWGQGTQVTVSS | high polyreactivity
QVQLVESGGGLVQAGGSLRLSCAASGRTFYTNVMGWYRQAPGKERELVAAITTSSSRTYYADSVKGRFTISRDNAKNTVYLQMNSLKPEDTAVYYCAARIHGSWSFDYWGQGTQVTVSS | low polyreactivity
QVQLVESGGGLVQAGGSLRLSCAASGRTFYTYGMGWYRQAPGKERELVAAITETGDSTYYADSVKGRFTISRDNAKNTVYLQMNSLKPEDTAVYYCAADYRAPLDYWGQGTQVTVSS | low polyreactivity
QVQLVESGGGLVQAGGSLRLSCAASGRTFYVNAMGWYRQAHGKERELVASITSGGSTYYADSVKGRFTISRDNAKNTVYLQMNSLKPEDTAVYYCAARWVQRLRHYIFYYWGQGTQGTVSS | high polyreactivity
QVQLVESGGGLVQAGGSLRLSCAASGRTFYVNAMGWYRQAPGKERELVATITDRGGRTYYADSVKGRFTISRDNAKNTVYLQMNSLKPEDTAVYYCAATRWYEVDYWGQGTQVTVSS | low polyreactivity
QVQLVESGGGLVQAGGSLRLSCAASGRTFYVNTMGWYRQAHGKEKDLVARITRGGSTYYADSVKGRFTISRDNAKNTVYLQMNSLKPEDTAVYYCATDHFPVYSTHVIYEFDYWGQGTQVTVSS | low polyreactivity
QVQLVESGGGLVQAGGSLRLSCAASGRTFYVNTMRWYRQAPGKEREFVARITRGGSTYYADSVKGRFTISRDNAMNTVYLEMNSLKPEDTAFYYCGTDHFPVYSTHVIYEFDYWGQGTQVTVSS | low polyreactivity
QVQLVESGGGLVQAGGSLRLSCAASGRTFYWNAMGWYRQAPGKERELVAAITRNGGSTYYADSVKGRFTISRDNAKNNVYLQMNSLKPEDTAVYYCAARKRYGAGYDYWGQGTQVTVSS | high polyreactivity
QVQLVESGGGLVQAGGSLRLSCAASGRTFYWNAMGWYRQAPGKERELVAGISRGGGITYYADSVKGRFTISRDNAKYTVYLQMNSLKPEDTAVYYCNSRAGRQLARYGYWGQGTQVTVSS | high polyreactivity
QVQLVESGGGLVQAGGSLRLSCAASGRTFYWNAMGWYRQAPGKERELVASINGGGSTYYADSVKGRFTISRDNAKNTVYLKMNSLKPEDTAVYYCNTSYIIWYDSWGQGTQVTVSS | low polyreactivity
QVQLVESGGGLVQAGGSLRLSCAASGRTFYWYAMGWYRQAPGKERELVAAITSGGSTNYADSVKGRFTISRDNAKNTVYLQMNSLKPEDTAVYYCAARRSVRRGGDYYWGQGTQVTVSS | high polyreactivity
QVQLVESGGGLVQAGGSLRLSCAASGRTFYWYTMGWYRQAPGKERELVAAISIGGITSYADSVKGRFTISRDNAKNTVYLQMNSLKPEDTAVYYCAAESACSRPYFNSIHRRDSWGQGTQVTVSS | low polyreactivity
QVQLVESGGGLVQAGGSLRLSCAASGRTFYYAMGWYRQAPGKERELVAAISWSGGRTYYADSVKARFTISRDNAKNTVYLQMNSLKPEDTAVYFCAAIYYYSPRDGFIYWGQGTQVTVSS | high polyreactivity
QVQLVESGGGLVQAGGSLRLSCAASGRTFYYAMGWYRQAPGKERELVAAITSSSSTYYADSVKGRFTISRDNAKNTVYLQLNSVKPEDTAVYYCNAADDPYGSPSYGYDYWGQGTQVTVSS | low polyreactivity
QVQLVESGGGLVQAGGSLRLSCAASGRTFYYNGMAWYRQAPGKERELVAAITSGGTTTYADSVKGLFTISRDNAKNSVYLQMNSVKPEETAVYYSNADYWAVNYDYCGQGTQVTVSS | low polyreactivity
QVQLVESGGGLVQAGGSLRLSCAASGRTFYYNTMGWYRQAPGKERELVAAISWRTGSTYYADSVKGRFTISRDNAKNTVYLQMNSLKPEDTAVYYCAAVLFGYPRTIGTWYDRYYYWGQGTQVTVSS | high polyreactivity
QVQLVESGGGLVQAGGSLRLSCAASGRTFYYNTMGWYRQAPGKERELVASITSGSSTYYADSVKGRFTISRDNAKNTVYLQMNSLKPEDTEVYYCAVYRRYSVKYHYGYWGQGTQVTVSS | high polyreactivity
QVQLVESGGGLVQAGGSLRLSCAASGRTFYYNTMGWYRQAPGKERELVATITSSGGRTYYADSVKGRFTISRDNAKNTVYLQMNSLKPEDTAVYYCNAALSRAFKHSTGYDYWGQGTQVTVSS | low polyreactivity
QVQLVESGGGLVQAGGSLRLSCAASGRTFYYYALGWYRQAPGKERELVAVIRSSGDSTYYADSVKGRFTISRDNANNTVYLQMNSLKPEDTAVYYCNADPGEVLVGYDYWGQGTQVTVSS | low polyreactivity
QVQLVESGGGLVQAGGSLRLSCAASGRTFYYYAMGGYRQAPGKERELVAAISKSATRTYYADSVKGRFTISRDNAKNTVYLQMNSLKPEDTAVYYCATGQYLRTSRYYYWGQGTQVTVSS | high polyreactivity
QVQLVESGGGLVQAGGSLRLSCAASGRTFYYYAMGRYRQAPGKEREFVASISYSGARTYYADSVKGRFTISRDNAKNTVYLQMNSLKPEDTAVYYCAASWRSGRGTYGYWGQGTQVTVSS | high polyreactivity
QVQLVESGGGLVQAGGSLRLSCAASGRTFYYYAMGWYRQAPGKEREFVAAISWSGVRTSYADSVKGRFTISRDNAKNTVYLQMNSQKPEDTAVYYCNVAVAFYYDYWYSTYLTYEYDYWGQGTQVTVSS | high polyreactivity

— the nanobody polyreactivity screen of Harvey et al. (2022)
